The text below walks through data of US20200308270A1 (Zymeworks, published 2020).

Residue numbers refer to the chain shown, from its start. In names and notes the source's numbering stands.

As usually defined, the Kd is the free concentration of one partner at which half of the binding sites on the other are occupied at equilibrium, for simple one-to-one binding.

Test [1] has as its target T1, recombinant human IL-17A (human, UniProt Q16552 20-155, limits assumed).
T1 construct: Bought reagent
Kind of test: SPR (ProteOn), IL-17A immobilized, Mab analyte.
Procedure: (§1) IL-17 affinity determination was carried out as follows. The IL-17A surface was generated using a GLC sensorchip activated by a 1:10 dilution of the standard BioRad sNHS/EDC solutions injected for 140s at 100 pt/min in the ligand (vertical) direction. Immediately after the activation, 1 to 4 microg/mL solution of IL-17A in 10 mM NaOAc pH 4.5 was injected in the ligand (vertical) direction at a flow rate of 25 or 100 microL/min until approximately 75-200 resonance units (RUs) were immobilized. Remaining active groups were quenched by a 140s injection of 1M ethanolamine at 100 μL/min also in the ligand direction. […] Firstly, two buffer injections for 30s at 100 microL/min in the analyte (horizontal) direction were used to stabilize the baseline. […] Sensorgrams were aligned and double-referenced using the buffer blank injection and interspots, and the resulting sensorgrams were analyzed using ProteOn Manager software v3.1. The double-referenced sensorgrams were fit to the Langmuir binding model.

A further test addresses T2, recombinant human HER3 (human, UniProt P21860 20-643).
T2 construct: Bought reagent
Kind of test: SPR (Biacore T200), HER3 captured via anti-His, Fab analyte.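 Also: single cycle kinetics with five Fab concentrations, referenced against a blank flow cell and mock-buffer injections, sensorgrams fit to a 1:1 binding model.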

Test [2] concerns the target T1, recombinant human IL-17A. Kind of test: SPR (ProteOn), IL-17A immobilized, Fab analyte.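 Also: IL-17A amine-coupled on a GLC sensor chip at roughly 75–200 RU, double-referenced sensorgrams fitted with a Langmuir binding model.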
Procedure: as §1

T1 sequence (Q16552 20-155 limits assumed): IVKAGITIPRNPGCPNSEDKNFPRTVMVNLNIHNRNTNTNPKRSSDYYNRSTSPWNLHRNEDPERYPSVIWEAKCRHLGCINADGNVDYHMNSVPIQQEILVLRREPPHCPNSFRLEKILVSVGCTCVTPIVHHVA
Procedure for recombinant human HER3: HER3 affinity determination in Fabs was carried out as follows. The screening of Fabs (preparative SEC purified) for binding to HER3 antigen occurred in two steps: an indirect capture of HER3 onto the anti-His antibody, followed by the injection of five concentrations of Fabs, for kinetic analysis using single cycle kinetics. […] HER3 was injected at 4-8 μg/mL over the active flow cell for 60 s at a flow rate of 10 μL/min. […] HER3 was not captured on the reference (blank) flow cell. […] The captured HER3 surfaces were regenerated by 10 mM glycine pH 1.5 for 120 s at 30 μL/min to prepare the surfaces for the next injection cycle. At least two mock-buffer injections were performed for each analyte injection and used for referencing. The resulting single cycle kinetics sensorgrams were analyzed using Biacore T200 BiaEvaluation software version 3.0 and fit to the 1:1 binding model.

B1: CAT-2200 designed Vlambda-Ckappa chimeric Mab, design 26 (E83V_D85T) (antibody, human IgG1, kappa)
heavy: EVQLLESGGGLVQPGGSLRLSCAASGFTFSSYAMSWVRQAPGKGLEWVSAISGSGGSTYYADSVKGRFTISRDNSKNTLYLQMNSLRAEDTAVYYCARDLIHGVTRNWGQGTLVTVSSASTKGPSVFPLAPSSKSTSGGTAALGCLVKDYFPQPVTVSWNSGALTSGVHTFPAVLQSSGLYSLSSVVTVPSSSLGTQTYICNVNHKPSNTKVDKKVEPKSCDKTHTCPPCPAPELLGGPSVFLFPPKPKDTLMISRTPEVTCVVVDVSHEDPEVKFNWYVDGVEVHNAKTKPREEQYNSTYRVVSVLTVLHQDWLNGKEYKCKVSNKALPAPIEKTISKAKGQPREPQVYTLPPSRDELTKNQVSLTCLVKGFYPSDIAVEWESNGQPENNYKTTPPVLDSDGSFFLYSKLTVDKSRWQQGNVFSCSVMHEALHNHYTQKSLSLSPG
light: NFMLTQPHSVSESPGKTVTISCTRSSGSLANYYVQWYQQRPGSSPTIVIFANNQRPSGVPDRFSGSIDSSSNSASLTISGLKTEDVATYYCQTYDPYSVVFGGGTKLTVLRTVAAPSVFIFPPSDEQLKSGTASVVCLLNNFYPREAKVQWKVDNALQSGNSQESVTEQDSKDSTYSLSSTLTLSKADYEKHKVYACEVTHQGLSSPVTKSFNRGEC
notes: IgG1 Mab format
As for B1, the Kd in the test with recombinant human IL-17A [1] is 0.048 nM.

B2: CAT-2200 designed Vlambda-Ckappa chimeric Mab, design 32 (E83I_D85T) (antibody, human IgG1, kappa)
heavy: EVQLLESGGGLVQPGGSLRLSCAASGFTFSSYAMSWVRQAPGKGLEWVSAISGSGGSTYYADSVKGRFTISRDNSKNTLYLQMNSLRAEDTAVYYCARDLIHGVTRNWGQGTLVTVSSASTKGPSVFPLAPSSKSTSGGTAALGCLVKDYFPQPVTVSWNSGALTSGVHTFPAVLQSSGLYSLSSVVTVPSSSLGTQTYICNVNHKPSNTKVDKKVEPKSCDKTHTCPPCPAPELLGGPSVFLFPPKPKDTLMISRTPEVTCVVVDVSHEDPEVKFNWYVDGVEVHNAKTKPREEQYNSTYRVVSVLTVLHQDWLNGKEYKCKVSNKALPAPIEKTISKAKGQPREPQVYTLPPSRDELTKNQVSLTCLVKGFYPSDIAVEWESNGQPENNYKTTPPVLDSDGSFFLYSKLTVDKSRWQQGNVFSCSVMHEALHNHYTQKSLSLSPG
light: B1 light with V86I
notes: IgG1 Mab format
For B2, in the test with recombinant human IL-17A [1], the Kd was 0.05 nM.

B3: CAT-2200 designed Vlambda-Ckappa chimeric Mab, design 18 (E83F_D85T_T105E) (antibody, human IgG1, kappa, V domains shown)
VH: not shown
VL: NFMLTQPHSVSESPGKTVTISCTRSSGSLANYYVQWYQQRPGSSPTIVIFANNQRPSGVPDRFSGSIDSSSNSASLTISGLKTEDFATYYCQTYDPYSVVFGGGTKLEVLR
notes: IgG1 Mab format
Regarding B3, the dissociation constant (Kd) in the test with recombinant human IL-17A [1] is 0.048 nM.

B4: H3 designed Vlambda-Ckappa chimeric Fab, design 34 (E83I_D85T_T105E_V106I) (Fab, name in Kabat numbering, V domains shown)
VH: QVQLQESGGGLVKPGGSLRLSCAASGFTFSSYWMSWVRQAPGKGLEWVANINRDGSASYYVDSVKGRFTISRDDAKNSLYLQMNSLRAEDTAVYYCARDRGVGYFDLWGRGTLVTVSS
VL: QSALTQPASVSGSPGQSITISCTGTSSDVGGYNFVSWYQQHPGKAPKLMIYDVSDRPSGVSDRFSGSKSGNTASLIISGLQADDIATYYCSSYGSSSTHVIFGGGTKVEILR
Consider B4, for which the Kd with recombinant human HER3 was 75.4 nM.

B5: H3 wild-type lambda Fab (Fab, V domains shown)
VH: B4 VH
VL: B4 VL with I85E, T87D, E109T, I110V, R112G
notes: Truncated heavy chain (VH-CH1-upper IgG1 hinge) and 'wild-type' lambda light chain (H3 VL + IGLC2); also called WT; H3 Fab
Turning to B5, the equilibrium dissociation constant (Kd) with recombinant human HER3 worked out at 92.4 nM.

B6: H3 designed Vlambda-Ckappa chimeric Fab, design 39 (E83A_D85T_T105E_V106I) (Fab, name in Kabat numbering, V domains shown)
VH: B4 VH
VL: B4 VL with I85A
Regarding B6, the Kd with recombinant human HER3 was determined as 89.6 nM.

B7: H3 designed Vlambda-Ckappa chimeric Fab, design 38 (E83A_D85T_T105E) (Fab, name in Kabat numbering, V domains shown)
VH: B4 VH
VL: B4 VL with I85A, I110V
In the case of B7, the Kd with recombinant human HER3 is 72.2 nM.

B8: H3 designed Vlambda-Ckappa chimeric Fab, design 37 (E83A_D85T) (Fab, name in Kabat numbering, V domains shown)
VH: B4 VH
VL: B4 VL with I85A, E109T, I110V
For B8, the Kd in the test with recombinant human HER3 was 83.5 nM.

B9: H3 designed Vlambda-Ckappa chimeric Fab, design 36 (E83A_T105E) (Fab, name in Kabat numbering, V domains shown)
VH: B4 VH
VL: B4 VL with I85A, T87D, I110V
B9: the Kd with recombinant human HER3 worked out at 66.4 nM.

B10: H3 designed Vlambda-Ckappa chimeric Fab, design 35 (E83A) (Fab, name in Kabat numbering, V domains shown)
VH: B4 VH
VL: B4 VL with I85A, T87D, E109T, I110V
Consider B10, for which the equilibrium dissociation constant (Kd) with recombinant human HER3 turned out to be 59.1 nM.

B11: CAT-2200 designed Vlambda-Ckappa chimeric Fab, design 18 (E83F_D85T_T105E) (Fab, V domains shown)
VH: not shown
VL: B3 VL
On to B11, for which the Kd in the test with recombinant human IL-17A [2] worked out at 0.3 nM.

B12: CAT-2200 designed Vlambda-Ckappa chimeric Fab, design 29 (E83V_D85T_T105E_V106I) (Fab, V domains shown)
VH: not shown
VL: B3 VL with F86V, V109I
Regarding B12, the Kd with recombinant human IL-17A [2] came out at 0.3 nM.

B13: CAT-2200 designed Vlambda-Ckappa chimeric Fab, design 21 (E83F_D85V_T105E_V106I) (Fab, V domains shown)
VH: not shown
VL: B3 VL with T88V, V109I
On to B13, for which, in the test with recombinant human IL-17A [2], the Kd was determined as 0.3 nM.

B14: CAT-2200 designed Vlambda-Ckappa chimeric Fab, design 28 (E83V_D85V_T105E) (Fab, V domains shown)
VH: not shown
VL: B3 VL with F86V, T88V
Consider B14, for which the Kd with recombinant human IL-17A [2] is 0.2 nM.

B15: CAT-2200 designed Vlambda-Ckappa chimeric Fab, design 20 (E83F_D85T_T105E_V106I) (Fab, V domains shown)
VH: not shown
VL: B3 VL with V109I
Take B15: in the test with recombinant human IL-17A [2], the Kd was 0.3 nM.

B16: CAT-2200 designed Vlambda-Ckappa chimeric Fab, design 15 (E83F_T105E) (Fab, V domains shown)
VH: not shown
VL: B3 VL with T88D
On to B16, for which the dissociation constant (Kd) with recombinant human IL-17A [2] came to 0.3 nM.

B17: CAT-2200 designed Vlambda-Ckappa chimeric Fab, design 14 (E83F) (Fab, V domains shown)
VH: not shown
VL: B3 VL with T88D, E108T
Take B17: the Kd with recombinant human IL-17A [2] is 0.3 nM.

B18: CAT-2200 designed Vlambda-Ckappa chimeric Fab, design 36 (E83A_T105E) (Fab, V domains shown)
VH: not shown
VL: B3 VL with F86A, T88D
In the case of B18, the Kd with recombinant human IL-17A [2] was found to be 0.3 nM.

B19: CAT-2200 designed Vlambda-Ckappa chimeric Fab, design 24 (E83V_T105E) (Fab, V domains shown)
VH: not shown
VL: B3 VL with F86V, T88D
On to B19, for which, in the test with recombinant human IL-17A [2], the Kd amounted to 0.3 nM.

B20: CAT-2200 designed Vlambda-Ckappa chimeric Fab, design 17 (E83F_D85T) (Fab, V domains shown)
VH: not shown
VL: B3 VL with E108T
Consider B20, for which the Kd with recombinant human IL-17A [2] came to 0.3 nM.

B21: CAT-2200 designed Vlambda-Ckappa chimeric Fab, design 25 (E83V_V106I) (Fab, V domains shown)
VH: not shown
VL: B3 VL with F86V, T88D, E108T, V109I
Regarding B21, the Kd with recombinant human IL-17A [2] stood at 0.4 nM.

B22: CAT-2200 designed Vlambda-Ckappa chimeric Fab, design 39 (E83A_D85T_T105E_V106I) (Fab, V domains shown)
VH: not shown
VL: B3 VL with F86A, V109I
With B22, in the test with recombinant human IL-17A [2], the Kd stood at 0.2 nM.

B23: CAT-2200 designed Vlambda-Ckappa chimeric Fab, design 31 (E83I_T105E) (Fab, V domains shown)
VH: not shown
VL: B3 VL with F86I, T88D
For the molecule B23, the Kd in the test with recombinant human IL-17A [2] was 0.3 nM.

B24: CAT-2200 designed Vlambda-Ckappa chimeric Fab, design 19 (E83F_D85V_T105E) (Fab, V domains shown)
VH: not shown
VL: B3 VL with T88V
Take B24: the Kd with recombinant human IL-17A [2] came out at 0.3 nM.

B25: CAT-2200 designed Vlambda-Ckappa chimeric Fab, design 16 (E83F_V106I) (Fab, V domains shown)
VH: not shown
VL: B3 VL with T88D, E108T, V109I
Take B25: the Kd with recombinant human IL-17A [2] stood at 0.3 nM.

B26: CAT-2200 designed Vlambda-Ckappa chimeric Fab, design 35 (E83A) (Fab, V domains shown)
VH: not shown
VL: B3 VL with F86A, T88D, E108T
Regarding B26, in the test with recombinant human IL-17A [2], the Kd was found to be 0.2 nM.

B27: CAT-2200 designed Vlambda-Ckappa chimeric Fab, design 32 (E83I_D85T) (Fab, V domains shown)
VH: not shown
VL: B3 VL with F86I, E108T
With B27, the Kd in the test with recombinant human IL-17A [2] worked out at 0.3 nM.

B28: CAT-2200 designed Vlambda-Ckappa chimeric Fab, design 38 (E83A_D85T_T105E) (Fab, V domains shown)
VH: not shown
VL: B3 VL with F86A
Regarding B28, in the test with recombinant human IL-17A [2], the Kd was 0.2 nM.

B29: CAT-2200 designed Vlambda-Ckappa chimeric Fab, design 33 (E83I_D85T_T105E) (Fab, V domains shown)
VH: not shown
VL: B3 VL with F86I
For B29, the dissociation constant Kd in the test with recombinant human IL-17A [2] came out at 0.3 nM.

B30: CAT-2200 designed Vlambda-Ckappa chimeric Fab, design 27 (E83V_D85T_T105E) (Fab, V domains shown)
VH: not shown
VL: B3 VL with F86V
As for B30, the dissociation constant Kd with recombinant human IL-17A [2] amounted to 0.2 nM.

B31: CAT-2200 designed Vlambda-Ckappa chimeric Fab, design 23 (E83V) (Fab, V domains shown)
VH: not shown
VL: B3 VL with F86V, T88D, E108T
As for B31, the Kd with recombinant human IL-17A [2] came to 0.2 nM.

B32: CAT-2200 designed Vlambda-Ckappa chimeric Fab, design 26 (E83V_D85T) (Fab, V domains shown)
VH: not shown
VL: B3 VL with F86V, E108T
On to B32, for which the dissociation constant (Kd) in the test with recombinant human IL-17A [2] is 0.3 nM.

B33: CAT-2200 designed Vlambda-Ckappa chimeric Fab, design 30 (E83I) (Fab, V domains shown)
VH: not shown
VL: B3 VL with F86I, T88D, E108T
Turning to B33, in the test with recombinant human IL-17A [2], the Kd stood at 0.3 nM.

B34: CAT-2200 designed Vlambda-Ckappa chimeric Fab, design 34 (E83I_D85T_T105E_V106I) (Fab, V domains shown)
VH: not shown
VL: B3 VL with F86I, V109I
B34: the Kd with recombinant human IL-17A [2] came to 0.2 nM.

B35: CAT-2200 designed Vlambda-Ckappa chimeric Fab, design 37 (E83A_D85T) (Fab, V domains shown)
VH: not shown
VL: B3 VL with F86A, E108T
On to B35, for which the Kd with recombinant human IL-17A [2] turned out to be 0.2 nM.
